The record followed here is patent US20250313631A1 (HUMMINGBIRD BIOSCIENCE PTE, published 2025).

For assay [1], the target named is T1, recombinant human VISTA (His-tagged) (human, UniProt Q9H7M9 33-194).
T1 construct: bought soluble protein (Sino Biological); also called hVISTA; human VISTA polypeptide
The experiment in a line: ELISA, plate coated with human VISTA.

Assay [2] addresses T1, recombinant human VISTA (His-tagged). Description: ELISA, plate coated with human VISTA. This is another data set of the same source. (In general: In an ELISA, binding on a coated surface is turned into a signal by an enzyme label.)
The target of another assay is T2, VISTA-Fc (UniProt Q9H7M9 33-194).
T2 construct: also called VISTA-Ig; not shown: Fc/Ig part not described
The experiment in a line: competition ELISA: VISTA-Fc coated, VSIG3-His 0.3 ug/ml as the blocked ligand, anti-His-HRP detection.

Assay [3] deals with T1, recombinant human VISTA (His-tagged). Description: BLI (Octet QK384): His-tagged human VISTA on anti-Penta-HIS tips, V4 1000 to 31.3 nM as analyte, global fit; value of the table column kdis(1/s). (In general: BLI is a label-free optical method that tracks binding on a fibre tip over time.)
Assay [4] shares this target. Description: antigen-binding ELISA; HMBD-002 in F9, day 20 at 40°C.
The target is the same in assay [5]. The experiment in a line: antigen-binding ELISA; HMBD-002 10 mg/mL in F8, day 0.
For assay [6] the target is unchanged. Description: antigen-binding ELISA; HMBD-002 in F5, day 10 at 40°C.
For assay [7] the target is unchanged. The experiment in a line: antigen-binding ELISA; HMBD-002 in F6, day 30 at 40°C.
The target is the same in assay [8]. Description: ELISA on coated human VISTA, antibody diluted in buffer of pH 7.
Assay [9] has the same target. Description: ELISA, VISTA-HIS protein coated; ELISA, human VISTA-HIS.
The target is the same in assay [10]. Description: antigen-binding ELISA; HMBD-002 in F10, day 10 at 40°C.
In assay [11] the target is T3, recombinant rat VISTA (His-tagged) (rat, UniProt A0ABK0L5H3 33-192).
T3 sequence: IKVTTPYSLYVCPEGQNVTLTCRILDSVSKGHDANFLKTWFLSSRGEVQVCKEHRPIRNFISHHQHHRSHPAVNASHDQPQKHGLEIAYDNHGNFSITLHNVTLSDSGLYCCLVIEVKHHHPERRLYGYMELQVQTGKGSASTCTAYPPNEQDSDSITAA
The experiment in a line: SPR (Biacore), VISTA-HIS captured, antibody as analyte, 1:1 model; SPR (Biacore), rat VISTA.

Assay [12] concerns the target T1, recombinant human VISTA (His-tagged). The experiment in a line: antigen-binding ELISA; HMBD-002 10 mg/mL in F9, day 0.
The target is the same in assay [13]. The experiment in a line: antigen-binding ELISA; HMBD-002 10 mg/mL in F2, day 0.
Assay [14] has as its target T4, cynomolgus macaque VISTA expressed on cells (cynomolgus macaque, UniProt A0A7N9IB00 33-311).
T4 construct: whole, on cells; also called NHP VISTA on HEK293T cells; VISTA on NHP CD11b+ myeloid cells
The experiment in a line: flow cytometry, endogenous VISTA on CD11b+ myeloid cells of NHP PBMCs.

Assay [15] has as its target T5, rat VISTA expressed on cells (rat, UniProt A0ABK0L5H3 33-310).
T5 construct: whole, on cells; also called rat VISTA on HEK293T cells; VISTA on rat CD11b+ myeloid cells
T5 sequence: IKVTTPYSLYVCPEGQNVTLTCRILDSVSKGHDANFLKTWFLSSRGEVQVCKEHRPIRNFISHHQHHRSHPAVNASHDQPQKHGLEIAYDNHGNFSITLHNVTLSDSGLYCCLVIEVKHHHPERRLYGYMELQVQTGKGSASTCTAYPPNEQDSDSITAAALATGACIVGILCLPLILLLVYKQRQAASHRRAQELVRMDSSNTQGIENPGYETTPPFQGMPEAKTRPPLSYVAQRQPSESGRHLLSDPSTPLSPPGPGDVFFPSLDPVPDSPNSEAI
The experiment in a line: flow cytometry, endogenous VISTA on CD11b+ myeloid cells of PBMCs. A general note: A flow cytometer gives signals particle by particle.

Assay [16] addresses T6, mouse VISTA expressed on cells (mouse, UniProt Q9D659 33-308).
T6 construct: whole, on cells; also called murine VISTA on transfected cells; VISTA on mouse CD11b+ myeloid cells
T6 sequence (looked up): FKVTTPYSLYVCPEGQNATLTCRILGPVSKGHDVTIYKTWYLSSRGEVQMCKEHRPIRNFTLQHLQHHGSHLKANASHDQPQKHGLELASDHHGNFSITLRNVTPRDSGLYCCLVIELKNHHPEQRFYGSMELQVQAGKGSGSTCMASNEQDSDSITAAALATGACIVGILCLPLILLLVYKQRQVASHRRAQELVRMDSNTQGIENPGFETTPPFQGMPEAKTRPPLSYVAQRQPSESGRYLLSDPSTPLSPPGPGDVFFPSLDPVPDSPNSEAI
The assay is described as above.

Assay [17] addresses T7, human VISTA expressed on cells (human, UniProt Q9H7M9 33-311).
T7 construct: also called HEK293 VISTA O/E; HEK293T or HEK293-6E cells overexpressing human VISTA
The description is as above.

Assay [18] has as its target T1, recombinant human VISTA (His-tagged). Description: antigen-binding ELISA; HMBD-002 10 mg/mL in F1, day 0.
The target in the next assay is human CTLA4 (human, UniProt P16410 36-162). Description: ELISA, plate coated with human CTLA-4, antibody titrated.

Read-outs that look alike come from different tables or passages of the source. Where only a bound is given, the exact number is not on record here.

B1: anti-VISTA clone V4-C24 IgG1 (antibody, V domains shown)
VH: QVQLQESGPGLVKPSDTLSLTCTVSGYSITSDYTWNWIRQTPGKGLEWIGHITYSGSVSYNPSLRSRVTISRDTSKNQFSLKLSSVTAADTATYSCARALYYPWYFDVWGTGTTVTVSS
VL: EIVLTQSPATLSLSPGERATLSCRASSSVGYIHWYQQKPGQAPRPLIYTTSYRATGIPARFSGSGSGTDNTLTISSLEPEDSAVYYCQQWSSYPPITFGGGTKLEVKR
A word on the EC50 (read off the curve): it is the midpoint of the concentration-response curve. B1: in assay [1], the “EC50 (read off the curve)” value is roughly 0.02 nM.

B2: anti-VISTA clone V4-C26 IgG1 (antibody)
heavy: not shown
light: EIVLTQSPATLSLSPGERATLSCRASSSVGYIHWYQQKPGQAPRPIIYTTSNRATGIPARFSGSGSGTDNTLTISSLEPEDSAVYYCQQWSSYPPITFGGGTKLEVKRTVAAPSVFIFPPSDEQLKSGTASVVCLLNNFYPREAKVQWKVDNALQSGNSQESVTEQDSKDSTYSLSSTLTLSKADYEKHKVYACEVTHQGLSSPVTKSFNRGEC
Turning to B2, the “EC50 (read off the curve)” value in assay [2] is roughly 0.01 nM.

B3: anti-VISTA clone 4M2-C12 IgG1 (antibody)
heavy: not shown
light: DIVITQTPAILSTSPGEKVTMTCRASSSVGYIHWYQQKPGSSPKPWIYATSNLASGVPARFSGSGSGTSNSLTITRVEAEDAATYYCQQWSSYPPITFGGGTKLEVKRTVAAPSVFIFPPSDEQLKSGTASVVCLLNNFYPREAKVQWKVDNALQSGNSQESVTEQDSKDSTYSLSSTLTLSKADYEKHKVYACEVTHQGLSSPVTKSFNRGEC
notes: mouse variable regions on human IgG1/kappa constant regions; also called V4; V4pr
What is called koff is the first-order rate constant of dissociation. For B3, the “IC50 (read off the curve)” value with VISTA-Fc was roughly 4 nM. For the same molecule, in assay [3], the koff was less than 1e-07 s⁻¹.

B4: V4-C26 hIgG4 (antibody)
heavy: not shown
light: EIVLTQSPATLSLSPGERATLSCRASSSVGYIHWYQQKPGQAPRPIIYTTSNRATGIPARFSGSGSGTDNTLTISSLEPEDSAVYYCQQWSSYPPITFGGGTKLEVKRTVAAPSVFIFPPSDEQLKSGTASVVCLLNNFYPREAKVQWKVDNALQSGNSQESVTEQDSKDSTYSLSSTLTLSKADYEKHKVYACEVTHQGLSSPVTKSFNRGEC
notes: human IgG4 (S228P)/kappa format; also called HMBD-002; HMBD-002-V4C26
One may read the EC50 as the midpoint of the concentration-response curve. What is called Kd is the constant that tells how readily two partners part at equilibrium. For the molecule B4, the EC50 in assay [4] came to 0.0223 nM; in [5] it was 0.0395 nM; in assay [6], 0.0341 nM; in assay [7], 0.0218 nM; in assay [8], 0.0343 nM; in assay [9] it was 0.00512 nM. For the same molecule, the EC50 in assay [10] worked out at 0.0281 nM; in assay [12] it was 0.0315 nM; in [13], 0.0339 nM; in assay [14], 67.6 nM; in assay [15], 48.6 nM; in assay [16], 111 nM. In addition, the EC50 in assay [17] is 108 nM; in assay [18] it was 0.04 nM. Also, the Kd in assay [11] worked out at 0.382 nM. Further, the binding result in the assay with human CTLA4 was “no binding (tested: about 3e-8 M)”.
